{"source": "paper PMC11272045", "biological_target": "recombinant his-tag subtilisin-like protease-1 (SspA-1) (Streptococcus suis serotype 2 strain 05ZYH33)", "assay": "MST"}
{"substance": "recombinant glutathione S-transferase (GST)-tagged human TLR2 (from UniProt O60603 21-784) (receptor)", "values": [{"measurement": "Kd", "value": 24.3, "unit": "nM"}]}
